{
  "source": "patent US7402570",
  "about": "(Johns Hopkins, dated 2008)",
  "binders": {"B1": {"name": "lexA-MDM2 (1-118) (other, not shown: small tags and cut ends)", "chain": "MCNTNMSVPTDGAVTTSQIPASEQETLVRPKPLLLKLLKSVGAQKDTYTMKEVLFYLGQYIMTKRLYDEKQQHIVYCSNDLLGDLFGVPSFSVKEHRKIYTMIYRNLVVVNQQESSDS", "notes": "Genetically engineered clone, expressed in yeast; also called MDM2 codons 1 to 118 fused to lexA"}},
  "target": "T1, human p53 protein, full length (human, UniProt P04637 1-393)",
  "T1 construct": "range 1-393; it is not clear whether that entry is whole p53 or the peptide, so it is not used here",
  "T1 sequence (P04637 whole entry)": "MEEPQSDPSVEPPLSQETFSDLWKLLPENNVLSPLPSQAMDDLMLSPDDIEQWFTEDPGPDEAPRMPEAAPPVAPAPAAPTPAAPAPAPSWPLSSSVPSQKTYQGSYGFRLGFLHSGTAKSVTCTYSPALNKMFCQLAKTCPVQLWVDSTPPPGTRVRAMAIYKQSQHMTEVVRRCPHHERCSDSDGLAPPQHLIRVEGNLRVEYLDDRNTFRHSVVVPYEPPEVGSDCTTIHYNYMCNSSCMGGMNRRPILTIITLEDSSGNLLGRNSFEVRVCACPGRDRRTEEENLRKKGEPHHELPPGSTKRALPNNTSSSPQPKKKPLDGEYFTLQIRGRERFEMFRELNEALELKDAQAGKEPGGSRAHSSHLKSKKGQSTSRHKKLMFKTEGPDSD",
  "assay": "yeast two-hybrid, lexA-responsive β-galactosidase reporter; (+) colonies turned blue following 24 hours (strain 4)",
  "data": [
    {"binder": "B1", "values": [
      {"measurement": "binding result", "result": "binds"}
    ]}
  ]
}
